{"source": "patent US20170037110A1", "about": "(IMMATICS BIOTECHNOLOGIES, published 2017)", "binders": {"B1": {"name": "GLLDLPFRVGV (peptide)", "peptide": "GLLDLPFRVGV"}, "B2": {"name": "SLLNQDLHWSL (peptide)", "peptide": "SLLNQDLHWSL"}, "B3": {"name": "LLMPSSEDLLL (peptide)", "peptide": "LLMPSSEDLLL"}, "B4": {"name": "YVLEGLKSV (peptide)", "peptide": "YVLEGLKSV"}, "B5": {"name": "FLTDLEDLTL (peptide)", "peptide": "FLTDLEDLTL"}, "B6": {"name": "KLYDDMIRL (peptide)", "peptide": "KLYDDMIRL"}, "B7": {"name": "ILDPISSGFLL (peptide)", "peptide": "ILDPISSGFLL"}, "B8": {"name": "GLLENIPRV (peptide)", "peptide": "GLLENIPRV"}, "B9": {"name": "VTVPPGPSL (peptide)", "peptide": "VTVPPGPSL"}, "B10": {"name": "ALWDIETGQQTTT (peptide)", "peptide": "ALWDIETGQQTTT"}, "B11": {"name": "YLQLTQSEL (peptide)", "peptide": "YLQLTQSEL"}, "B12": {"name": "YLEELPEKLKL (peptide)", "peptide": "YLEELPEKLKL"}, "B13": {"name": "WLLPYNGVTV (peptide)", "peptide": "WLLPYNGVTV"}, "B14": {"name": "TVTNAVVTV (peptide)", "peptide": "TVTNAVVTV"}, "B15": {"name": "ALQETPTSV (peptide)", "peptide": "ALQETPTSV"}, "B16": {"name": "VIADGGIQNV (peptide)", "peptide": "VIADGGIQNV"}, "B17": {"name": "SLLPLDDIVRV (peptide)", "peptide": "SLLPLDDIVRV"}, "B18": {"name": "SLWQDIPDV (peptide)", "peptide": "SLWQDIPDV"}, "B19": {"name": "TLYDIAHTPGV (peptide)", "peptide": "TLYDIAHTPGV"}, "B20": {"name": "KLVDRTWTL (peptide)", "peptide": "KLVDRTWTL", "notes": "probably a misprint of W as VV"}, "B21": {"name": "ALANQIPTV (peptide)", "peptide": "ALANQIPTV"}, "B22": {"name": "LLLTTIPQI (peptide)", "peptide": "LLLTTIPQI"}, "B23": {"name": "ALADLIEKELSV (peptide)", "peptide": "ALADLIEKELSV"}, "B24": {"name": "ILVANAIVGV (peptide)", "peptide": "ILVANAIVGV"}, "B25": {"name": "YLLQEPPRTV (peptide)", "peptide": "YLLQEPPRTV"}, "B26": {"name": "YLISQVEGHQV (peptide)", "peptide": "YLISQVEGHQV"}, "B27": {"name": "ILLNNSGQIKL (peptide)", "peptide": "ILLNNSGQIKL"}, "B28": {"name": "VMFEDGVLMRL (peptide)", "peptide": "VMFEDGVLMRL"}, "B29": {"name": "ILTEENIHL (peptide)", "peptide": "ILTEENIHL"}, "B30": {"name": "FLDPGGPMMKL (peptide)", "peptide": "FLDPGGPMMKL"}, "B31": {"name": "NLMEMVAQL (peptide)", "peptide": "NLMEMVAQL"}, "B32": {"name": "LLMENAERV (peptide)", "peptide": "LLMENAERV"}, "B33": {"name": "TLCDVILMV (peptide)", "peptide": "TLCDVILMV"}, "B34": {"name": "ILANDGVLLAA (peptide)", "peptide": "ILANDGVLLAA"}, "B35": {"name": "ALAEVAAMENV (peptide)", "peptide": "ALAEVAAMENV"}, "B36": {"name": "ALWDLAADKQTL (peptide)", "peptide": "ALWDLAADKQTL"}, "B37": {"name": "KLKPGDLVGV (peptide)", "peptide": "KLKPGDLVGV"}, "B38": {"name": "VMNDRLYAI (peptide)", "peptide": "VMNDRLYAI"}, "B39": {"name": "SLLPLSHLV (peptide)", "peptide": "SLLPLSHLV"}, "B40": {"name": "ILLSVPLLVV (peptide)", "peptide": "ILLSVPLLVV"}, "B41": {"name": "KLYPQLPAEI (peptide)", "peptide": "KLYPQLPAEI"}, "B42": {"name": "SLIEKLWQT (peptide)", "peptide": "SLIEKLWQT"}, "B43": {"name": "SMAELDIKL (peptide)", "peptide": "SMAELDIKL"}, "B44": {"name": "RLLJAAENFL (peptide)", "peptide": "RLL[pS]AAENFL"}, "B45": {"name": "GLPRFGIEMV (peptide)", "peptide": "GLPRFGIEMV"}, "B46": {"name": "IMLKGDNITL (peptide)", "peptide": "IMLKGDNITL"}, "B47": {"name": "VLLSIYPRV (peptide)", "peptide": "VLLSIYPRV"}, "B48": {"name": "ALLDQTKTLAESAL (peptide)", "peptide": "ALLDQTKTLAESAL"}, "B49": {"name": "KLLEGQVIQL (peptide)", "peptide": "KLLEGQVIQL"}, "B50": {"name": "FLFPHSVLV (peptide)", "peptide": "FLFPHSVLV"}, "B51": {"name": "ALAELYEDEV (peptide)", "peptide": "ALAELYEDEV"}, "B52": {"name": "YLLNDASLISV (peptide)", "peptide": "YLLNDASLISV"}, "B53": {"name": "ALAAPDIVPAL (peptide)", "peptide": "ALAAPDIVPAL"}, "B54": {"name": "SAFPFPVTV (peptide)", "peptide": "SAFPFPVTV"}}, "note": "Non-standard residues stand in square brackets, D forms with d. No end group written: not given here. pS = N[C@@H](COP(=O)(O)O)C(=O)O", "data": [{"target": "T1, HLA-A*02:01 (human)", "T1 construct": "monomers captured on streptavidin plates; also called MHC class I", "assay": "UV peptide exchange ELISA", "method_in_brief": "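Peptide-MHC complexes formed by UV-triggered exchange of a cleavable peptide for the test peptide, with stabilised complexes indicating binding. Exchange products diluted 100 fold onto streptavidin-coated wells, 1h at 37° C.; HRP anti-β2m (2 μg/ml), TMB, absorbance at 450 nm gives exchange yield.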", "units": {"peptide exchange yield": "%"}, "values": [{"binder": "B1", "peptide exchange yield": "≥ 75"}, {"binder": "B2", "peptide exchange yield": "≥ 75"}, {"binder": "B3", "peptide exchange yield": "50 to 75"}, {"binder": "B4", "peptide exchange yield": "50 to 75"}, {"binder": "B5", "peptide exchange yield": "50 to 75"}, {"binder": "B6", "peptide exchange yield": "50 to 75"}, {"binder": "B7", "peptide exchange yield": "20 to 50"}, {"binder": "B8", "peptide exchange yield": "50 to 75"}, {"binder": "B9", "peptide exchange yield": "20 to 50"}, {"binder": "B10", "peptide exchange yield": "50 to 75"}, {"binder": "B11", "peptide exchange yield": "50 to 75"}, {"binder": "B12", "peptide exchange yield": "50 to 75"}, {"binder": "B13", "peptide exchange yield": "50 to 75"}, {"binder": "B14", "peptide exchange yield": "50 to 75"}, {"binder": "B15", "peptide exchange yield": "20 to 50"}, {"binder": "B16", "peptide exchange yield": "20 to 50"}, {"binder": "B17", "peptide exchange yield": "50 to 75"}, {"binder": "B18", "peptide exchange yield": "50 to 75"}, {"binder": "B19", "peptide exchange yield": "≥ 75"}, {"binder": "B20", "peptide exchange yield": "50 to 75"}, {"binder": "B21", "peptide exchange yield": "20 to 50"}, {"binder": "B22", "peptide exchange yield": "50 to 75"}, {"binder": "B23", "peptide exchange yield": "50 to 75"}, {"binder": "B24", "peptide exchange yield": "50 to 75"}, {"binder": "B25", "peptide exchange yield": "20 to 50"}, {"binder": "B26", "peptide exchange yield": "50 to 75"}, {"binder": "B27", "peptide exchange yield": "≥ 75"}, {"binder": "B28", "peptide exchange yield": "50 to 75"}, {"binder": "B29", "peptide exchange yield": "50 to 75"}, {"binder": "B30", "peptide exchange yield": "50 to 75"}, {"binder": "B31", "peptide exchange yield": "20 to 50"}, {"binder": "B32", "peptide exchange yield": "20 to 50"}, {"binder": "B33", "peptide exchange yield": "50 to 75"}, {"binder": "B34", "peptide exchange yield": "50 to 75"}, {"binder": "B35", "peptide exchange yield": "50 to 75"}, {"binder": "B36", "peptide exchange yield": "≥ 75"}, {"binder": "B37", "peptide exchange yield": "50 to 75"}, {"binder": "B38", "peptide exchange yield": "50 to 75"}, {"binder": "B39", "peptide exchange yield": "50 to 75"}, {"binder": "B40", "peptide exchange yield": "20 to 50"}, {"binder": "B41", "peptide exchange yield": "50 to 75"}, {"binder": "B42", "peptide exchange yield": "20 to 50"}, {"binder": "B43", "peptide exchange yield": "50 to 75"}, {"binder": "B44", "peptide exchange yield": "50 to 75"}, {"binder": "B45", "peptide exchange yield": "50 to 75"}, {"binder": "B46", "peptide exchange yield": "50 to 75"}, {"binder": "B47", "peptide exchange yield": "50 to 75"}, {"binder": "B48", "peptide exchange yield": "50 to 75"}, {"binder": "B49", "peptide exchange yield": "50 to 75"}, {"binder": "B50", "peptide exchange yield": "50 to 75"}, {"binder": "B51", "peptide exchange yield": "50 to 75"}, {"binder": "B52", "peptide exchange yield": "50 to 75"}, {"binder": "B53", "peptide exchange yield": "50 to 75"}, {"binder": "B54", "peptide exchange yield": "50 to 75"}]}]}
